Source: article PMC5887321
Where two headings read alike, the source gives them in different places.

How the values were obtained:
Assay in all cases: SEC-SAXS
FL-RIG-I [1] = biological target: T1, FL-RIG-I (human, UniProt O95786 1-925)
T1 sequence: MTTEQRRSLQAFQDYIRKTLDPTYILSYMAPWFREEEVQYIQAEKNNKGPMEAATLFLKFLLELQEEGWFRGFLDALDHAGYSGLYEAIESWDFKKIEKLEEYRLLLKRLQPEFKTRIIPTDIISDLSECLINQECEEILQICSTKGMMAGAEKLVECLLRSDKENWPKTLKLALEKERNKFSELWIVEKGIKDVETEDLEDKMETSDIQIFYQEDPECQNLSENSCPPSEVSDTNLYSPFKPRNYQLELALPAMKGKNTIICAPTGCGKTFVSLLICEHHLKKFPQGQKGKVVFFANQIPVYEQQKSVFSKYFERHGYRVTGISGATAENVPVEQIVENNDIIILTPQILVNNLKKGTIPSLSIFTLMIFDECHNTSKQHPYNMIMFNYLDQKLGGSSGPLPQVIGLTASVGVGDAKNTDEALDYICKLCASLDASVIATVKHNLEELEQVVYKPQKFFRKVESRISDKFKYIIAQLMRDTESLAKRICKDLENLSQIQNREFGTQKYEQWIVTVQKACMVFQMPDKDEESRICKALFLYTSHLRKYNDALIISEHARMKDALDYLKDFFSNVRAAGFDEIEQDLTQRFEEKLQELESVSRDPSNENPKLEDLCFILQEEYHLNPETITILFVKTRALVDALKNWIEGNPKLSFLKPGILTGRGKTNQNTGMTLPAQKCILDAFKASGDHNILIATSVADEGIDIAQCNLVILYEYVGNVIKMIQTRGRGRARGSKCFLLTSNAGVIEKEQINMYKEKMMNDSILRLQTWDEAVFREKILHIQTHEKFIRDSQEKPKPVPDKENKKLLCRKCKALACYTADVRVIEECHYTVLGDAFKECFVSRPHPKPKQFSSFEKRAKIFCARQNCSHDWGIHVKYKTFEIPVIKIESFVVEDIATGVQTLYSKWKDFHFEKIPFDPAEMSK

[2] = biological target: T2, DC-RIG-I (CARDs-truncated) (human, UniProt O95786 239-925)
T2 sequence: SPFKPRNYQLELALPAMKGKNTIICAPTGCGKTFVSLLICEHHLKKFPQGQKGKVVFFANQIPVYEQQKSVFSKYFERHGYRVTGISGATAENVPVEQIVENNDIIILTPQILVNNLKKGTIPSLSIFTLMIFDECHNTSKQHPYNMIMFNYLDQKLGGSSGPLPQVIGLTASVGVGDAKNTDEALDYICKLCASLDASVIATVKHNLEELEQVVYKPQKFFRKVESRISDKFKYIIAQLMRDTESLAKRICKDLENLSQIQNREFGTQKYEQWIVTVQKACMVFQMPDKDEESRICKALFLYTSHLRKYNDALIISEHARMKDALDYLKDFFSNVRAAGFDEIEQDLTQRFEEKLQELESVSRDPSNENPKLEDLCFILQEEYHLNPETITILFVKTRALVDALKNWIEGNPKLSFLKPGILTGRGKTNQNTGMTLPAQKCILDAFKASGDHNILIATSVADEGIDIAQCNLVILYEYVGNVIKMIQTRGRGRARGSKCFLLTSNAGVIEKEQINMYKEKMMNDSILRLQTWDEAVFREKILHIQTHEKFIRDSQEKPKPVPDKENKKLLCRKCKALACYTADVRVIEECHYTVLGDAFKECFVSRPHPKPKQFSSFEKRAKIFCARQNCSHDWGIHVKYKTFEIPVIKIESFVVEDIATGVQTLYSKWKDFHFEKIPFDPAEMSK

[3] = biological target: T2, DC-RIG-I (CARDs-truncated); remark: listed apart in the source
FL-RIG-I [4] = biological target: T1, FL-RIG-I; remark: listed apart in the source
[5] = biological target: T2, DC-RIG-I (CARDs-truncated); remark: listed apart in the source
FL-RIG-I [6] = biological target: T1, FL-RIG-I; remark: listed apart in the source

Question: Does GGCGCGGCUUCGGCCGCGCC (structured_RNA, 5'-triphosphate) [5'ppp 8 bp hairpin (8 bp, SEC peak 1)] bind (FL-RIG-I [1])?
Answer: binds

Question: Does GGCGCGGCUUCGGCCGCGCC (structured_RNA, 5'-triphosphate) [5'ppp 8 bp hairpin (8 bp, SEC peak 1)] bind [2]?
Answer: binds

B1: 8 bp-long (self-annealed 8 bp, SEC peak 2) (dsRNA)
RNA 1: GGCGCGGCUUCGGCCGCGCC
RNA 2: GGCGCGGCUUCGGCCGCGCC
modifications: 5'-triphosphate on each strand
Question: Does B1 bind [3]?
Answer: binds

Question: Does B1 bind (FL-RIG-I [4])?
Answer: binds

Question: Does GGACGUACGUUUCGACGUACGUCC (structured_RNA, 5'-triphosphate) [5'ppp 10 bp hairpin (10 bp)] bind [5]?
Answer: binds

Question: Does GGACGUACGUUUCGACGUACGUCC (structured_RNA, 5'-triphosphate) [5'ppp 10 bp hairpin (10 bp)] bind (FL-RIG-I [6])?
Answer: binds
